# Experimental data: a protein production outcome set (Wang et al. 2014)
# Assay: label from the status in PepcDB records
sequence,measurement,value
MPGTVSPAPSLQSTTARICPSIRRPTMSRFGALRLPLAVCLAVLLTIASGPARAQPADAPLDEADYGQWERLGGATLSPEGTWMATPIRRVNGNHELRIHHTRRDTTRTVAFGRSPAFSADGQWLAYSIGMSEERRKKRRKQEKPVRRRLGLLNLATGDTTVVPAVSGFAFSDGGRYLAMRRYPPQEAPDDLRGADLLVRDLEAETYTSFGNVADMAWQHEAPHLALTIDGRTETGNGVRLYDAATGRLQTLASTPGDYTGLSWRPAEDDLAALRARDSDDWQHETHVVLAWTGVNDGAPERRQFDPATAGAFPDSLRIVDHRTPAWATERERLFFGVQKREAVAPDTAQADSAAADSLEDYGPAGVKVWHTSDVEIIPRQEVQAEQDREDNYLTAWHLGRSGEAHWTRLGTELTEDVQVLHGGARAVGLDQTPYREERMFGPVYHDLYAIDVATGEREQVAEKVQFFEGPSANGRYLLWLKNDQYHAYDLQQETTNTITADVPVPVVDVDDDHTVEQKPPFGIAGWTAGDRSVLVYSEYDVWRIAPDGSSTERLTTGRADSVRHRYVDLTDEAPGEADVIPRNEPIYWDLYDEWTEEHGYARASALTDTPERMVWKPKMMTGLTKADSADVYAYRVEDFEDSPDYFRAGPQLADARQVTSTNPFQDDYAWGRSDLVAFRNANGKKLQGALFYPADYDPDKTYPMITYIYETRSPQARSYVVPTREHPYNTTTFTQEGYIVFQPDITYRPRDPGNSAVDAIVPGVQAAAEAAAVDTSRIGLVGHSWGGYQTTFTATQTDLFATAVAGAPLTNMVSMYNSIYWRSGGTDARIFEISQGRMGVPPWEDMDAYVANSPLHHIESLNTPFLMAFGTDDGAVEFNQGVEFYNAARRADKELAFLVYDGENHGISRKEKNTVDYRNRVLEWFDHYLKGDEGPAWIQDGVPFLEQVERQEEAAVSR,protein production,failed
MCAADHSREQVMRIGEVASRAGVSVRSVRYYEDQGLLASTRSAGGQRQYTEHEVERVQFLQRLYAAGLSSRTIAELLPCVDAPSEVHSDAALERMAQERDRLTEHIADLVRTRDALNALMTAAREYRDAQFA,protein production,failed
MVNGSPHEKGCTYTALTEVAKTLNEEGIDTEIFWIGKKPLTGCTACKSCTKTGRCAFNDRANDFLDIAKGADGFIFGSPVHYASATGAITSFMDCVFYSDLLGGRQSFYLKPAATVISARRAGTTTTFDQLNKYFTLSEMPVISSRYWNMVHGAKPEDVKKDLEGLQIMRVLARNMAWFLKCKEAGMKAGVPLPVKEERMSTNFIRE,protein production,failed
MKSAPAVISVAFVLGLLTWLLLHGLNINSARYDSQLRALGDFTRFERGMTREVLTARAGLSRNYDALVHMVNAYDDALTRLRDTAGLDAEQTRVIDVLSARADRQESLIERFKSRNALLQNSFAYFGLFSDRLAASESRPVVTAASALAAAMLRLTLDTSDAAARQVEDRLEELAQLQAPPAETDSVHALLLHGQMLHDLLPDIDTILKTLVAESNNREQDAMLAVILKRQLAARASARKTRLLQYITSLLLLSGIIYFGMLLRKRAMALRRRAAFEHVIANISMLFINSSNDGIDADVEMALRQLAGCIGADRAYFACVVGTTMHTYRWSRDGIAFEPGWPERVLSLAPRLDGGEDGIVYIPRMNASHPHDAMLTEAGVSGWLCIMAAYGSRDGILGFDAVRGGALTYWSEVSLFRMAFDAIGNAIRRARLEGEKERLQASLQQARRMETIGTFASGIAHNFNNIVGAILGHAEMADARVAPGSRPAASLAEIRRAGERARELVEQILGFGRRGEGRRERVCLRTLVDETRSLLAASLPSHVTFEVDETADIAIVTGEPAQLQQVILNLCNNAAQAMKEPGRIELRIKVHDLVKPLSIGRSEVGPGRFTVISVADPGPGMDEATLERIFEPFFTTRPDGNGLGLATVREIVEQHGGAVAVQSRPDAGTRFDIWLPSGEPVEPQPAQHGSDPAFLGAGETVLVIDTDRRRLLRYEEILAALGYEPVGFTGLAEAIAACRAAHARFDAALVCHLPGGSSLDLAAALHDAAPALPIILAAPSTRDLAMPSLKTSGITELVHHPLASAELASALARSLVSSATSGRLRRAAGAS,protein production,failed
MAEDYKLIDNEEKHRYEFQIDDKIAKIDYIKSNNGEIYLVHTEVPASLGGRGVGSQLAEKTLADIERQGLRLVPLCPFVAGYIHKHPEWKRIVMRGIHIK,protein production,failed
MSRFPRRFIDDSSMEDAGISLCPSIHYRPINPNDLDRLEQIHRDIFPIKYESEFFQSVVNGVDIVSWAAVDRSRPDDHSDELIGFVTAKFVLAKDSEIDDLIHYDSSKGEETLIYILTLGVVETYRNRGIAMSLISEVIKYASGLSVCRGVYLHVIAHNNAAICLYKRLMFRCVRRLHGFYLINRHHFDAFLFVYFINGSRTPCSPLEVAMFVVNYMKSGIKSVASKLANKDEKGLKWLFCKDTDCV,protein production,failed
